Target: T1, PPE41 protein of Mycobacterium tuberculosis (Mycobacterium tuberculosis, UniProt Q79FE1 1-194)
T1 construct: also called Rv2430c; rRv2431c (as printed in the methods)
T1 sequence: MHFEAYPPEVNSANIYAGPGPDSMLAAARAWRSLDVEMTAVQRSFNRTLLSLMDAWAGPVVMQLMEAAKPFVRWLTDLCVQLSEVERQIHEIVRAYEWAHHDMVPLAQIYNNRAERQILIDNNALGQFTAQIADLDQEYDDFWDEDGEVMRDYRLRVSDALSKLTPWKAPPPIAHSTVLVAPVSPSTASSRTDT
Assay: co-purification by Cobalt affinity chromatography
Conditions: partners not purified

B1: PE25 protein of Mycobacterium tuberculosis (natural protein)
chain: MSFVITNPEALTVAATEVRRIRDRAIQSDAQVAPMTTAVRPPAADLVSEKAATFLVEYARKYRQTIAAAAVVLEEFAHALTTGADKYATAEADNIKTFS
notes: also called Rv2431c; rRv2430c (as printed in the methods)
- binding result: binds
